The results in this text go back to publication PMC4130213.

The test system of series [1] is CovR (unphosphorylated) (Streptococcus pyogenes (M6 serotype, JRS4?)). Description: DNase I footprinting. To be noted: not given in the material (DNase I protection assay details absent).
For series [2], the system named is CovR-P (phosphorylated CovR) (Streptococcus pyogenes (M6 serotype, JRS4?)). Description: DNase I footprinting. As to conditions: not given in the material (DNase I protection assay details absent).

Consider Pska wild type, for which the binding signal in series [1] came to 3 µM; in series [2], 0.25 µM.
